Results as given in patent US20210188933A1.

Biological target: IL-15RβγC
Assay: cell-based or functional assay

ALT-803 (IL-15N72D:IL-15RαSu/Fc complex) (from UniProt Q13261 31-95) (Fc fusion)
EC50 of ALT-803 stimulated proliferation of IL-15RβγC-bearing cells: 0.016 nM
